# Results taken from patent US20210363254A1 (Novartis, published 2021).
# Changes are numbered by the printed parent chain.
# B1: BAP049-hum13 (antibody, human IgG4 S228P, kappa)
# heavy chain: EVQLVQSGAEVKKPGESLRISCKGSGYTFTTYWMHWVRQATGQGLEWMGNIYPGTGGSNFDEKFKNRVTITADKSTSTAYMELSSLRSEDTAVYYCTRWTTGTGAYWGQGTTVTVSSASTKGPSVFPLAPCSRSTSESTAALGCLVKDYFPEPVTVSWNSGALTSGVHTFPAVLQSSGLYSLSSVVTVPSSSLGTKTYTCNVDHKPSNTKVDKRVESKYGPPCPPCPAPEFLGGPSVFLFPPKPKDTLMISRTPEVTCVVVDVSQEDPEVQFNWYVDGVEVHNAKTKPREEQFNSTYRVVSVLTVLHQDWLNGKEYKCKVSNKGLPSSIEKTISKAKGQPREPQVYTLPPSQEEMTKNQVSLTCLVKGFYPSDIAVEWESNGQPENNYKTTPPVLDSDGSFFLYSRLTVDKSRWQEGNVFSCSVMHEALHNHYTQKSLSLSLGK
# light chain: DVVMTQSPLSLPVTLGQPASISCKSSQSLLDSGNQKNFLTWYQQKPGKAPKLLIYWASTRESGVPSRFSGSGSGTDFTFTISSLEAEDAATYYCQNDYSYPYTFGQGTKVEIKRTVAAPSVFIFPPSDEQLKSGTASVVCLLNNFYPREAKVQWKVDNALQSGNSQESVTEQDSKDSTYSLSSTLTLSKADYEKHKVYACEVTHQGLSSPVTKSFNRGEC
# notes: also called clone 13
# B2: BAP049-hum10 (antibody, human IgG4 S228P, kappa)
# heavy: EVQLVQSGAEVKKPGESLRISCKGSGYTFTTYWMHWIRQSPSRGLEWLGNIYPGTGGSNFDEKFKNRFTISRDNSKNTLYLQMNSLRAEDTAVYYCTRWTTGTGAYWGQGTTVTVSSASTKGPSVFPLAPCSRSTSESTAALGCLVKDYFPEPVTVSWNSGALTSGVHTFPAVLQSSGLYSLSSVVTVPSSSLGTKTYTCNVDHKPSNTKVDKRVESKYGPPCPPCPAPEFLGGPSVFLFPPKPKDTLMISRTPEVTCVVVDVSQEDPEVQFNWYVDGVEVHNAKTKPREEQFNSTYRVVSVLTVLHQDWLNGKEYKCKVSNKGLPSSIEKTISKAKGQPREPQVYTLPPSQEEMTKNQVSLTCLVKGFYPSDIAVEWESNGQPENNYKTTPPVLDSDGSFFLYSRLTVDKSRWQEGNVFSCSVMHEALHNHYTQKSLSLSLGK
# light: EIVLTQSPATLSLSPGERATLSCKSSQSLLDSGNQKNFLTWYQQKPGQAPRLLIYWASTRESGVPSRFSGSGSGTDFTFTISSLEAEDAATYYCQNDYSYPYTFGQGTKVEIKRTVAAPSVFIFPPSDEQLKSGTASVVCLLNNFYPREAKVQWKVDNALQSGNSQESVTEQDSKDSTYSLSSTLTLSKADYEKHKVYACEVTHQGLSSPVTKSFNRGEC
# notes: also called humanized BAP049 clone hum10
# B3: BAP049-hum15 (antibody, human IgG4 S228P, kappa)
# heavy chain: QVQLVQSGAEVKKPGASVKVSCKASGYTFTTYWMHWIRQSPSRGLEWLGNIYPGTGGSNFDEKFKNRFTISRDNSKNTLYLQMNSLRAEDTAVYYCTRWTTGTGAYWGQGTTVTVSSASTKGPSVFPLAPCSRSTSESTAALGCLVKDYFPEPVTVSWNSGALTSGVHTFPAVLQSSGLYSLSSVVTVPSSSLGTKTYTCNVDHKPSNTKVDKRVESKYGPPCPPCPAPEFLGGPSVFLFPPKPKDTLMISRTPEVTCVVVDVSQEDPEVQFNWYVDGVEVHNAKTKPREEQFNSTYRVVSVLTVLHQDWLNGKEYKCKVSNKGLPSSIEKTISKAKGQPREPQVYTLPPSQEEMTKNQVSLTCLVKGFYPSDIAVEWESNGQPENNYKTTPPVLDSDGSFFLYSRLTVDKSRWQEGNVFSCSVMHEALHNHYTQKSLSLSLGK
# light chain: B2 light with A9D, T10F, L11Q, L13V, S14T, G16K, R18K, A19V, L21I, S22T
# notes: also called clone 15
# B4: BAP049-hum11 (antibody, human IgG4 S228P, kappa)
# heavy: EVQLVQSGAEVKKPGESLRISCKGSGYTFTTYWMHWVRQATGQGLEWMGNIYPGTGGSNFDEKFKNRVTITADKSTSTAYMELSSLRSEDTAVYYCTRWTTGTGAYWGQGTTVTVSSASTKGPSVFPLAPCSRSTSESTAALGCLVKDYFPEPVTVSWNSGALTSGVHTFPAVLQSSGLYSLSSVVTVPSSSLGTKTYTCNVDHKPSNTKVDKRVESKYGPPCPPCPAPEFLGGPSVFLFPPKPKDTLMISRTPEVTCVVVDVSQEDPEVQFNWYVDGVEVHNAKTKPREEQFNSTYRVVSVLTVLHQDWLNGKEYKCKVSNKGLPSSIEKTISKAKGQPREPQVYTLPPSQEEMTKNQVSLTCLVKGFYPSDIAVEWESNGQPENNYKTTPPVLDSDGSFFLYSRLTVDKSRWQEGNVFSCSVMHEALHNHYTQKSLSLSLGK
# light: B2 light
# notes: also called humanized BAP049 clone hum11
# B5: BAP049-hum09 (antibody, human IgG4 S228P, kappa)
# heavy: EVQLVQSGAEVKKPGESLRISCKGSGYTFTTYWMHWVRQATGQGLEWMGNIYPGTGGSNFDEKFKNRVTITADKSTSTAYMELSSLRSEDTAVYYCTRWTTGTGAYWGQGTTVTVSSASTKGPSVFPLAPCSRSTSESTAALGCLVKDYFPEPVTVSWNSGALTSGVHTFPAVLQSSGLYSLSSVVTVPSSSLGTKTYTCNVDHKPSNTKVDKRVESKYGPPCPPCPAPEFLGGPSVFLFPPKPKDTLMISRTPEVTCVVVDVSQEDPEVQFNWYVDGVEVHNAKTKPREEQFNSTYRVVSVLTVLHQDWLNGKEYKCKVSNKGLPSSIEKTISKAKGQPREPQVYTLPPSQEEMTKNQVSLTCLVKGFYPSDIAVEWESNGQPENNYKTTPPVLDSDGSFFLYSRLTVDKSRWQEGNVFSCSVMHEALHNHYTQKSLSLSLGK
# light: B2 light with A9D, T10F, L11Q, L13V, S14T, G16K, R18K, A19V, L21I, S22T
# notes: also called humanized BAP049 clone hum09
# B6: BAP049-hum01 (antibody, human IgG4 S228P, kappa, V domains shown)
# VH: EVQLVQSGAEVKKPGESLRISCKGSGYTFTTYWMHWVRQATGQGLEWMGNIYPGTGGSNFDEKFKNRVTITADKSTSTAYMELSSLRSEDTAVYYCTRWTTGTGAYWGQGTTVTVSS
# VL: EIVLTQSPATLSLSPGERATLSCKSSQSLLDSGNQKNFLTWYQQKPGQAPRLLIYWASTRESGVPSRFSGSGSGTEFTLTISSLQPDDFATYYCQNDYSYPYTFGQGTKVEIKR
# notes: Humanized anti-PD-1 mAb; also called humanized BAP049 clone hum01
# B7: BAP049-hum07 (antibody, human IgG4 S228P, kappa)
# heavy chain: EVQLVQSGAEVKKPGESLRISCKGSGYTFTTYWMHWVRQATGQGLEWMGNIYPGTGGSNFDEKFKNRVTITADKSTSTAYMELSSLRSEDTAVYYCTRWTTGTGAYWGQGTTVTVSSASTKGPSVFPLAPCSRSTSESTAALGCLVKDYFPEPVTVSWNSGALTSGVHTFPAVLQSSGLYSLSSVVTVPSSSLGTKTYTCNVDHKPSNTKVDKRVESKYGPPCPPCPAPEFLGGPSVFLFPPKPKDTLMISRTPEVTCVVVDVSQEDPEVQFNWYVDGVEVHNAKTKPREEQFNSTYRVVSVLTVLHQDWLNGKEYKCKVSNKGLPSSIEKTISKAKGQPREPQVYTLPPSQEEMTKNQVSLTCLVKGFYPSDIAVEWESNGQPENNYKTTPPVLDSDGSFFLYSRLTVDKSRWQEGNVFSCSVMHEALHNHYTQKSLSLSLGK
# light chain: B2 light with Q48K, R51K
# notes: also called clone 7
# B8: BAP049-hum08 (antibody, human IgG4 S228P, kappa)
# heavy: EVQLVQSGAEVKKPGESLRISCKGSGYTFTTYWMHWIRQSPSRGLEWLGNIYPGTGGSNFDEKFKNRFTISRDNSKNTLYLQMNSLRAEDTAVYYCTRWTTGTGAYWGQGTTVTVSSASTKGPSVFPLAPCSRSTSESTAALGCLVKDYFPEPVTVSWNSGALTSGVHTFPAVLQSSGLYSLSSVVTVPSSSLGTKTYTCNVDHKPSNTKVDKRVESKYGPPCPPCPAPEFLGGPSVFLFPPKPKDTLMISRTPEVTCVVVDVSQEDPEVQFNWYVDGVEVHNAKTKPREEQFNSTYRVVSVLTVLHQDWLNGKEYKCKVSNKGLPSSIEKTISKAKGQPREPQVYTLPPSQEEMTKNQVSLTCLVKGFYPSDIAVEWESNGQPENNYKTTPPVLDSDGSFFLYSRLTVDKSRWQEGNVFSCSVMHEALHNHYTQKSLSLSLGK
# light: B2 light with A9D, T10F, L11Q, L13V, S14T, G16K, R18K, A19V, L21I, S22T
# notes: also called humanized BAP049 clone hum08
# B9: BAP049-hum05 (antibody, human IgG4 S228P, kappa, V domains shown)
# VH: B6 VH
# VL: B6 VL with Q48K, R51K, E76D, L79F, D87E, F89I
# notes: also called humanized BAP049 clone hum05
# B10: BAP049-hum04 (antibody, human IgG4 S228P, kappa, V domains shown)
# VH: EVQLVQSGAEVKKPGESLRISCKGSGYTFTTYWMHWIRQSPSRGLEWLGNIYPGTGGSNFDEKFKNRFTISRDNSKNTLYLQMNSLRAEDTAVYYCTRWTTGTGAYWGQGTTVTVSS
# VL: B6 VL with Q48K, R51K, E76D, L79F, D87E, F89I
# notes: also called clone 4
# B11: BAP049-hum06 (antibody, human IgG4 S228P, kappa)
# heavy chain: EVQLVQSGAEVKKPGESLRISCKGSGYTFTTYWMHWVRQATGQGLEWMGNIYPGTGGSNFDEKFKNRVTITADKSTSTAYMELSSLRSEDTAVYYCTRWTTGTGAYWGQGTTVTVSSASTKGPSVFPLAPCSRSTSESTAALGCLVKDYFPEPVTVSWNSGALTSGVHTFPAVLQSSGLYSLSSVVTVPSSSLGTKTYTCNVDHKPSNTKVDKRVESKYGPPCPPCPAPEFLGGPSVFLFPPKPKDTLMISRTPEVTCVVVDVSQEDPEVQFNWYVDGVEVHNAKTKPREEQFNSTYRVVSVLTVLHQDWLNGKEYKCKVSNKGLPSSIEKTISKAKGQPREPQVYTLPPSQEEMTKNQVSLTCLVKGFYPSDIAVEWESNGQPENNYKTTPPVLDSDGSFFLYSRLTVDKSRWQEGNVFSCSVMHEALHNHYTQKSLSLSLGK
# light chain: B1 light chain with V2I, S7T, L15P, Q17E, K48Q, K51R
# notes: also called clone 6
# B12: BAP049-hum14 (antibody, human IgG4 S228P, kappa)
# heavy chain: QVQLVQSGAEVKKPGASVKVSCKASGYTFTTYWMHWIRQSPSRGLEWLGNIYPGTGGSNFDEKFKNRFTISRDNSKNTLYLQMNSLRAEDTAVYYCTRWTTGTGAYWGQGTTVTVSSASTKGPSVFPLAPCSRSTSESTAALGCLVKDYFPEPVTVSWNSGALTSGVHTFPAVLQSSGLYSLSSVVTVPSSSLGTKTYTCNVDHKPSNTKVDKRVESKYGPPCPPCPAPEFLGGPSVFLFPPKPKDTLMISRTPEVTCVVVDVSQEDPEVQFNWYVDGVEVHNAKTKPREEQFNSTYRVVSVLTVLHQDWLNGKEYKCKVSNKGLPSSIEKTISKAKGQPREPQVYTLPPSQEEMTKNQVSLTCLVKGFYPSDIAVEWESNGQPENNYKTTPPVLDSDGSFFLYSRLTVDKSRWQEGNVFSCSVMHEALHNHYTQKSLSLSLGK
# light chain: B2 light
# notes: also called clone 14
# B13: BAP049-hum16 (antibody, human IgG4 S228P, kappa, V domains shown)
# VH: B10 VH with I37V, S40A, S42G, R43Q, L48M
# VL: EIVLTQSPDFQSVTPKEKVTITCKSSQSLLDSGNQKNFLTWYQQKPGQAPRLLIYWASTRESGVPSRFSGSGSGTDFTFTISSLEAEDAATYYCQNDYSYPYTFGQGTKVEIKR
# notes: also called clone 16
# B14: BAP049-hum02 (antibody, human IgG4 S228P, kappa, V domains shown)
# VH: B6 VH
# VL: DIQMTQSPSSLSASVGDRVTITCKSSQSLLDSGNQKNFLTWYQQKPGQAPRLLIYWASTRESGIPPRFSGSGYGTDFTLTINNIESEDAAYYFCQNDYSYPYTFGQGTKVEIKR
# notes: also called clone 2
# B15: BAP049-hum12 (antibody, human IgG4 S228P, kappa, V domains shown)
# VH: B6 VH
# VL: DIQMTQSPSSLSASVGDRVTITCKSSQSLLDSGNQKNFLTWYLQKPGQSPQLLIYWASTRESGVPSRFSGSGSGTDFTFTISSLEAEDAATYYCQNDYSYPYTFGQGTKVEIKR
# notes: also called clone 12
# B16: BAP049-hum03 (antibody, human IgG4 S228P, kappa, V domains shown)
# VH: B10 VH
# VL: B14 VL
# notes: also called clone 3
# B17: Chi mAb (Tyr) (antibody, human IgG4 S228P, kappa, V domains shown)
# VH: QVQLQQSGSELVRPGASVKLSCKASGYTFTTYWMHWVRQRPGQGLEWIGNIYPGTGGSNFDEKFKNRTSLTVDTSSTTAYMHLASLTSEDSAVYYCTRWTTGTGAYWGQGTTVTVSS
# VL: DIVMTQSPSSLTVTAGEKVTMSCKSSQSLLDSGNQKNFLTWYQQKPGQPPKLLIFWASTRESGVPDRFTGSGSVTDFTLTISSVQAEDLAVYYCQNDYSYPYTFGQGTKVEIKR
# notes: also called BAP049-chi-Y; Chi (Tyr)
# B18: Mu mAb (antibody, V domains shown)
# VH: B17 VH with T112L, S117A
# VL: DIVMTQSPSSLTVTAGEKVTMSCKSSQSLLDSGNQKNFLTWYQQKPGQPPKLLIFWASTRESGVPDRFTGSGSVTDFTLTISSVQAEDLAVYYCQNDYSYPCTFGGGTKLEIK
# notes: also called murine mAb BAP049; murine anti-PD-1 mAb BAP049
# Target: T1, Programmed Death 1 (PD-1) (UniProt Q15116 25-288, limits assumed)
# Assay: rank of the clone among the humanized BAP049 clones by FACS data
# T1 sequence (Q15116 25-288 limits assumed): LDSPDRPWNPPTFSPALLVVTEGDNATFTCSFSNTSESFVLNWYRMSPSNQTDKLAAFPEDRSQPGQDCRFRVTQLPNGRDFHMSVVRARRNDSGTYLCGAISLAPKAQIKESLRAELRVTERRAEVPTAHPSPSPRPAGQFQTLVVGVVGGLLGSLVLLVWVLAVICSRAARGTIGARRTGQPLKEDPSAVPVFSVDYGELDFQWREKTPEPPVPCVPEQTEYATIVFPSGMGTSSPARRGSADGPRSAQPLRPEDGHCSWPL
row,Binder,"Ranking, FACS data"
1,B1,6
2,B2,7
3,B3,6
4,B4,6
5,B5,7
6,B6,2
7,B7,4
8,B8,7
9,B9,5
10,B10,14
11,B11,1
12,B12,16
13,B13,15
14,B14,6
15,B15,3
16,B16,7

# Target: T1, Programmed Death 1 (PD-1)
# Assay: rank of the clone by competition binding against labelled murine mAb BAP049, first experiment (legends paragraph 52)
row,Binder,"Competition Binding, 1st exp. (rank)"
1,B1,1
2,B2,6
3,B3,7
4,B4,4
5,B5,2
6,B6,7
7,B7,7
8,B8,7
9,B9,5
10,B10,15
11,B11,7
12,B12,7
13,B13,16
14,B14,3
15,B15,8
16,B16,8

# Target: T1, Programmed Death 1 (PD-1)
# Assay: rank of the clone by competition binding against labelled murine mAb BAP049, second experiment (legends paragraph 52); footnote: empty boxes means worse than 4
row,Binder,"Competition Binding, 2nd exp. (rank)"
1,B1,1
2,B2,> 4
3,B3,15
4,B4,> 4
5,B5,4
6,B6,2
7,B7,> 4
8,B8,4
9,B9,> 4
10,B10,15
11,B11,3
12,B12,15
13,B13,15
14,B14,2
15,B15,16
16,B16,14

# Target: T1, Programmed Death 1 (PD-1)
# Assay: FACS, blocking of ligand-Ig binding to PD-1, MFI of bound ligand against mAb concentration; legend paragraph 53 names 'PD-LI-Ig and PD-L2-Ig' for FIG. 8A; cells not named
row,Binder,IC50 (read off the curve) [µg/mL]
1,B17,~0.9
2,B18,~0.7
3,B2,~1
4,B6,~1
5,B9,~1
